Reference: patent US20250297009A1 (BIOTHEUS, published 2025)

Key:
[1] = target: T1, human PD-1 (Uniprot: Q15116) on cells (human, UniProt Q15116 25-288); experiment: flow cytometry on CHO cells overexpressing human PD-1, fluorescent secondary antibody
T1 construct: whole, on cells; The cell type is named under assay or readout; also called CHO-huPD-1 cells; CHO cells overexpressing human PD-1

[2] = target: T1, human PD-1 (Uniprot: Q15116) on cells; experiment: flow cytometry, competition with bio-human PD-L1-Fc (0.5 µg/mL) on CHO-huPD-1 cells
[3] = target: T1, human PD-1 (Uniprot: Q15116) on cells; experiment: flow cytometry on activated human primary T cells, fluorescent secondary antibody
[4] = target: T1, human PD-1 (Uniprot: Q15116) on cells; experiment: flow cytometry on CHO-S cells overexpressing human PD-1
Description: (§1) By transfecting human PD-1 (Uniprot: Q15116), cynomolgus monkey PD-1 (Uniprot: BOLAJ3) cDNA pCHO1.0 vector (purchased from Invitrogen) into CHO-S cellsand following with pressure screening, CHO-S cells overexpressing human PD-1 (CHO-huPD-1 cells) and CHO-S cells overexpressing cynomolgus monkey PD-1 (CHO-cynoPD-1 cells) were produced. The overexpressed cells after expansion culture were adjusted to the appropriate cell density and added to a 96-well flow plate, centrifuged and then added with gradiently diluted samples, and incubated at 4° C. for 30 minutes. Washing was performed twice with PBS, fluorescent secondary antibody correspondingly diluted to the appropriate concentration was added, incubated at 4° C. for 30 minutes, and washed twice with PBS. The cells were resuspended in PBS, and detected on a CytoFlex flow cytometer, and the corresponding MFI was calculated. Graphpad software was used for graphical analysis to obtain EC₅₀ values.

[5] = target: T2, cynomolgus monkey PD-1 (Uniprot: BOLAJ3 as printed) on CHO-S cells (cynomolgus monkey); experiment: flow cytometry on CHO-S cells overexpressing cynomolgus monkey PD-1
T2 construct: whole, on cells; also called CHO-cynoPD-1 cells; CHO cells overexpressing cynomolgus monkey PD-1
Description: as §1

[6] = target: T3, Cynomolgus monkey PD-1-his protein (cynomolgus monkey PD-1 extracellular domain with his tag) (cynomolgus monkey, UniProt Q15116 25-165 (human entry)); experiment: BLI (ForteBio), antibody loaded on AHQ sensor, 100 nM PD-1-his in solution, monovalent, 1:1 model
T3 construct: also called Cyno PD-1-his; not shown: his tag
T3 chain: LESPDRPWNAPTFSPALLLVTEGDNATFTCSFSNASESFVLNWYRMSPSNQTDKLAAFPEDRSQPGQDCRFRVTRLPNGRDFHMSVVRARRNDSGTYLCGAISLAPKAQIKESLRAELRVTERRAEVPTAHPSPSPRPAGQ
Experimental: (§2) The binding dissociation constant (KD) values of the antibody obtained in Example 1 binding to human and cynomolgus monkey PD-1 were determined by biofilm optical interference technology (ForteBio). Fortebio affinity determination was carried out according to the existing method (Este, P et al. High throughput solution-based measurement of antibody-antigen affinity and epitope binning. Mabs, 2013.5(2): p. 270-8), and the extracellular amino acid sequences of human and cynomolgus monkey PD-1 were as set forth in SEQ ID NO:20 and 21, respectively.
(§3) The sensor loaded with antibody was exposed to 100 nM PD-1-his antigen until the plateau phase, and then the sensor was transferred to the assay buffer for at least 2 minutes for dissociation rate measurement. The kinetic analysis was performed using a 1:1 binding model.

[7] = target: T4, Human PD-1-his protein (human PD-1 extracellular domain with his tag) (human, UniProt Q15116 25-170); experiment: as above
T4 construct: also called PD-1-his antigen; not shown: his tag
Experimental: as §2, §3

[8] = target: T2, cynomolgus monkey PD-1 (Uniprot: BOLAJ3 …); experiment: flow cytometry on CHO cells overexpressing cynomolgus monkey PD-1 according to legend paragraph 157 and Example 11 (the title on the sheet prints CHO-huPD-1), fluorescent secondary antibody
[9] = target: T1, human PD-1 (Uniprot: Q15116) on cells; experiment: flow cytometry blocking assay on CHO cells overexpressing human PD-1; blocked ligand: bio-human PD-L1-Fc, SA-PE detection

T1 sequence (Q15116 25-288, one chain of several): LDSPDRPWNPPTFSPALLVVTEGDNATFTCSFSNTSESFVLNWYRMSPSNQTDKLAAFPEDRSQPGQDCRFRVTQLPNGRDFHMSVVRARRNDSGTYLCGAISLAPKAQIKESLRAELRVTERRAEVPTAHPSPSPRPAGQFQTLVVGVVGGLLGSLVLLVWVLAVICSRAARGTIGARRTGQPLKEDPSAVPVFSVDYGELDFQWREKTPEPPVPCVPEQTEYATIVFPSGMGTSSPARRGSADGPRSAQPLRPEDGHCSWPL
T4 sequence (Q15116 25-170): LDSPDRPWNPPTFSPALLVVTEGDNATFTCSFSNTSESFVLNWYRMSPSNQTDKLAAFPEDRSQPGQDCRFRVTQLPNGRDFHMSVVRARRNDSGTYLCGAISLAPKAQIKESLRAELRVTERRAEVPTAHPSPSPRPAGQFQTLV

B1: anti-PD-1 antibody ADI-54872 (antibody, human IgG1, kappa, L234A L235A, V domains shown)
VH: QVQLVQSGAEVKKPGASVKVSCKASGYTFTEYYIYWVRQAPGQGLEWIGGINPSNGGTNFNEKFKPRVTMTVDTSTSTAYMELSSLRSEDTAVYYCTVRDFRFDKGFKYWGQGTLVTVSS
VL: EIVLTQSPATLSLSPGERATLSCRASKSVSTSGLNYVHWYQRKPGQAPRLLIYLGSYLDSGVPARFSGSGSGTDFTLTISSLEPEDFAVYYCQQSWELPLTFGGGTKVEIKR
notes: Full-length IgG (human IgG1 LALA constant region), expressed in HEK293 and purified on Protein A
EC50 (read off the curve) [1]: ~7 nM
IC50 [2]: 3.74 nM
EC50 (read off the curve) [3]: ~1 nM
EC50 [4]: 3.79 nM
EC50 [5]: 4.32 nM
Kd [6]: 0.201 nM
Kd [7]: 0.453 nM
EC50 (read off the curve) [8]: ~6 nM
IC50 (read off the curve) [9]: ~7 nM
